We go through eight molecules from patent US20240034790A1 (INNOBATION BIO, published 2024).

Test [1] has as its target T1, CD47 on breast cancer cell line MCF-7 (UniProt Q08722 19-323, limits assumed).
T1 construct: whole, on cells; Endogenous CD47 of MCF-7 cells; also called CD47-expressing tumor cells (MCF-7); CD47-expressing cells
Kind of test: flow cytometry on MCF-7 cells, secondary antibody alone (background control).

Test [2] deals with T1, CD47 on breast cancer cell line MCF-7. Kind of test: flow cytometry on MCF-7 cells, 1 ug antibody, PE anti-mouse IgG. The procedure:
First, 1×10⁷ of breast cancer cell line MCF-7 expressing CD47 and 1 μg of 7C7, 5H4, […], 3H3, 3A5, and 1E7 antibody were reacted for 30 minutes, respectively, and then stained on surface with a secondary antibody. After staining, it was measured by flow cytometry.
As a positive control, CD47 antibody (Biolegend PE anti-human CD47, cat# 323108, 5 μl) was used, and as a secondary antibody, PE-conjugated anti-mouse IgG antibody (PE-conjugated goat anti-mouse IgG; Biolegend Inc., cat# 405307, USA, 5 μl) was used.

Test [3] has as its target T2, CD47 protein (Acrobiosystems, cat#CD7-HA2E9) (UniProt Q08722 19-139).
T2 construct: Bought recombinant protein, used as immunogen and as ELISA coating (100 ng/well); also called CD47 peptide; CD47 antigen
Kind of test: ELISA, CD47 protein coated 100 ng/well, 3 ul hybridoma culture solution, anti-mIgG-HRP. The procedure: 3 μl of hybridoma cell culture solution of each clone for producing 7C7, 5H4, 5A4, 4E12, 3H3, 3A5, or 1E7 antibody was treated in each well, and then reacted at room temperature for 2 hours, and then washed 3 times with 1× PBST. Secondary antibody ([…], 1:10,000) was treated and reacted at room temperature for 30 minutes, washed 3 times with 1× PBST, and then treated with TMB for color development and reacted at room temperature for 5 minutes. Finally, the reaction was terminated by treatment with a stop solution of 1N H₂SO₄, and then the absorbance was measured at 450 nm.

T1 sequence (Q08722 19-323 limits assumed): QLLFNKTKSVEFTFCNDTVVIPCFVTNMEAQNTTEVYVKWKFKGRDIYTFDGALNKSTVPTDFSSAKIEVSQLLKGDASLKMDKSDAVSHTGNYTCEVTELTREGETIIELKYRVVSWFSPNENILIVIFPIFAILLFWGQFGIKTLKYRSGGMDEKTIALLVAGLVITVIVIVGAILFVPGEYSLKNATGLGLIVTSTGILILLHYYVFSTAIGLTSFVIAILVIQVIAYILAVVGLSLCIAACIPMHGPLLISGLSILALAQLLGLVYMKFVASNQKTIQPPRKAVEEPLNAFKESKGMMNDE
T2 sequence (Q08722 19-139 limits assumed): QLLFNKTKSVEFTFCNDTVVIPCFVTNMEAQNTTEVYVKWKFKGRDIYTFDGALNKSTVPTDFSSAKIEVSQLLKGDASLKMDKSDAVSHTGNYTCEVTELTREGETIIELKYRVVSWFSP

In test [1], “PE-conjugated goat anti-mouse IgG (Biolegend Inc., cat# 405307) (antibody)” showed a Mean of 80 and a Median of 73.9.

B1: 5A4 antibody (antibody, V domains shown)
VH: QVQLQQPGPELVRPGASVKMSCKASGYTFTNYWIHWVKQRPGQGLEWIGMIDPSNSATRLNQKFKDKATLNVDKSSNTAYMQLSSLTSEDSAVYYCARGGFAFDSWGQGTTLTVSS
VL: DVLMTQTPLSLPVSLGDQASISCRSSQSLVHSNGNTYLHWYLQKPGQSPKLLIYKVSNRFSGVPDRFSGSGSGTDFTLKISRVEAEDLGVYFCSQSTHVPWTFGGGTKLEIK
notes: Hybridoma monoclonal antibody detected with anti-mouse IgG
In the case of B1, in test [2], the Mean was 16000 and the Median is 14700. For the same molecule, the OD450 measurements in test [3] turned out to be 1.93 OD450.

B2: 4E12 antibody (antibody, V domains shown)
VH: QIQFAQSGPELKKSGETVKISCRASGYTFTNYGMNWVKQAPGKGLKWMGWINTYTGEPTYADDFKGRFAFSLETSASTAYLQINNLKNEDMATYFCARGGGRGAMDYWGQGTTLTVSS
VL: DVLMTQTPLSLPVSLGDQASISCRSSQSIVHSNGNTYLDWYLQKPGQSPKLLIYKVSKRFSGVPDRFSGSGSGTDFTLKISRVEAEDLGVYYCFQGSHVPFTFGSGTKLEIK
notes: as for B1
In test [2], B2 registered a Mean of 6030 and a Median of 5380. In test [3], this molecule yielded an OD450 measurements of 2.15 OD450.

B3: 5H4 antibody (antibody, V domains shown)
VH: QVQLQQPGAELVKPGTSVKMSCKASGYTFTNYWMHWVKQRPGQVLEWIGVIDPSDSYTSYNQKFKGKATLTVDTSSTTAYMQLSSLTSEDSAVYYCTRGGKRAMDYWGQGTSVTVSS
VL: DVLMTQTPLSLPVSLGDQASISCRSSQSLVHSNGNTYLHWYLQKPGQSPKLLIYKVSNRFSGVPDRFSGSGSGTDFTLKISRVEAEDLGVYFCSQSTHVPFTFGSGTKLEIK
notes: as for B1
Regarding B3, in test [2], the Mean amounted to 15500 and the Median turned out to be 14300. The molecule further gave an OD450 measurements in test [3] of 1.91 OD450.

B4: 1E7 antibody (antibody, V domains shown)
VH: EVQLQQSGPELIKPGASVKMSCKASGYIFTSYVVYWVKQKPGQGLEWIGYINPYNDGTKYNEKFKGKATLTSYKSSSTAYMELSSLTSADSAVYYCARGGFTTDYWGQGTTLTVSS
VL: DVLMTQTPLSLPVSLGDQASISCRSSQSLVHSNGNTYLHWYLQKPGQSPKLLIYKVSNRFSGVPDRFSGSGSGTDFTLKISRVEAEDLGVYFCSQSTHVPYTFGGGTKLEIK
notes: as for B1
B4: in test [2], the Mean is 16100 and the Median stood at 14900. For the same molecule, the OD450 measurements in test [3] stood at 2.14 OD450.

B5: 3H3 antibody (antibody, V domains shown)
VH: EVQLQQPGPELVRPGASVKMSCKASGYTFTNYWMHWVKQRPGQGLEWIGMIDPSNSETRLNQKFKDKATLNVDKSSNTAYMQLSSLTSEDSAVYSCARGGFAFDSWGQGTTLTVSS
VL: DVLMTQTPLSLPVSLGDQASISCRSSQSLVHNNGNTYLHWYLQKPGQSPKLLIYKVSNRFSGVPDRFRGSGSGTDFTLKISRVEAEDLGVYFCSQSTHVPWTFGGGTKLEIK
notes: as for B1
Turning to B5, in test [2], the Mean is 18000 and the Median worked out at 16500. This molecule also came in with an OD450 measurements in test [3] of 1.97 OD450.

B6: 3A5 antibody (antibody, V domains shown)
VH: EVQLQQPGAELVKPGASVKMSCKASGYTFTSYWMHWMNQRPGQGLEWIGVIDPSDSYTSYNQKFKGKATLTVDTSSSTAYMQLSSLTSEDSAVYYCARGGKRAMDYWGQGTSVTVSS
VL: DVLMTQTPLSLPVSLGDQASISCRSSQSLVHSNGNTYLHWYLQKPGQSPKLLIYKVSNRFSGVPDRFSGSGSGTDFTLKISRVEAEDLGVYFCSQSTHVPFTFGSGTKLEIK
notes: as for B1
For B6, in test [2], the Mean turned out to be 15000 and the Median was found to be 13900. Further, the OD450 measurements in test [3] turned out to be 2.01 OD450.

B7: 7C7 antibody (antibody, V domains shown)
VH: EVQLQQSGPELVKPGASVRMSCKASGYTFTSYVMHWVKQKPGQGLEWIGYINPYNDGTKYNEKFKGKSTLTSDKSSSTAYMELSSLTSEDSAVYCCARGRNRYDSWFAYWGQGTLVTVSA
VL: DIQMTQTTSSLSASLGDRVTISCRASQDISNYLNWYQQKPDGTVKLLIYYTSRLHSGVPSRFSGSGSGTDYSLTISNLEQEDIATYFCQQGNTLPWTFGGGTKLEIK
notes: Monoclonal antibody from a hybridoma (mouse myeloma fusion), detected with anti-mouse IgG; In the ELISA hybridoma culture solution was used
In test [2], B7 yielded a Mean of 6820 and a Median of 6110. The same molecule had an OD450 measurements in test [3] of 1.98 OD450.
